Results on three molecules are retold here after US11447809B2, “Evolution of tRNA synthetases” (President and Fellows of Harvard College, priority 2017, dated 2022).

One series concerns tRNA^Pyl. Description: Aminoacylation assay of chPylRS variants (32P-labeled tRNA, nuclease P1/TLC). The format is biochemical. As to the method:
(§1) The genes of chPylRS variants and MjTyrRS variants were cloned into pET15a and transformed into BL21(DE3) (New England Biolabs) cells for expression. Cells were grown in 500 mL of LB media supplemented with 100 m/mL ampicillin at 37° C. to an A600 of 0.6-0.8, and protein expression was induced by addition of 0.5 mM IPTG (chPylRS variants) or 1 mM IPTG (MjTyrRS variants). Cells were incubated at 30° C. for an additional 6 h (chPylRS variants) or 4 h (MjTyrRS variants) and harvested by centrifugation at 5,000 g for 10 min at 4° C. The cell pellet was resuspended in 15 mL of lysis buffer (50 mM Tris (pH 7.5), 300 mM NaCl, 20 mM imidazole), and cells were lysed by sonication. The crude extract was centrifuged at 20,000 g for 30 min at 4° C. The soluble fraction was loaded onto a column containing 2 mL of Ni-NTA resin (Qiagen) previously equilibrated with 20 mL of lysis buffer. The column was washed with 20 mL of lysis buffer. The bound protein was then eluted with 2 mL of 50 mM Tris (pH 7.5), 300 mM NaCl, 300 mM imidazole. The purified protein was dialyzed with 50 mM HEPES-KOH (pH 7.5), 50 mM KCl, 1 mM DTT and 50% glycerol and stored at −80° C. for further studies.
(§2) Template plasmid containing the tRNA^Pyl or tRNACUA^Tyr/Opt gene was purified with the plasmid maxi kit (Qiagen). The plasmid containing tRNA^Pyl (100 μg) was digested with BstNI (New England Biolabs). The tRNACUA^Tyr/Opt gene was amplified by PCR. The BstNI digested template DNA or PCR product was purified by phenol chloroform extraction, followed by ethanol precipitation and dissolved in double distilled water. A His-tagged T7 RNA polymerase was purified over a column of Ni-NTA resin according to manufacturer's instructions (Qiagen). The transcription reaction (40 mM Tris (pH 8); 4 mM each of UTP, CTP, GTP, and ATP at pH 7.0; 22 mM MgCl2; 2 mM spermidine; 10 mM DTT; 6 μg pyrophosphatase (Roche Applied Science); 60 m/mL of DNA template, approximately 0.2 mg/mL T7 RNA polymerase) was performed in 10 mL reactions overnight at 37° C. The tRNA was purified on 12% denaturing polyacrylamide gel containing 8 M urea and TBE buffer (90 mM Tris, 90 mM boric acid, 2 mM EDTA). UV shadowing was used to illuminate the pure tRNA band, which was excised and extracted three times with 1M sodium acetate pH 5.3 at 4° C. The tRNA extractions were then ethanol precipitated, dissolved in RNase-free distilled water, pooled, and finally desalted using a Biospin 30 column (BioRad). The tRNA was refolded by heating to 100° C. for 5 min and slow cooling to room temperature. At 65° C., MgCl2 was added to a final concentration of 10 mM to aid folding. A His-tagged CCA adding enzyme was purified over column of Ni-NTA resin according to manufacturer's instructions (Qiagen). 16 μM refolded tRNA in 50 mM Tris (pH 8.0), 20 mM MgCl2, 5 mM DTT, and 50 μM NaPPi was incubated at room temperature for 1 h with approximately 0.2 mg/mL CCA-adding enzyme and 1.6 μCi/μL of (α-^32P)-labeled ATP (PerkinElmer). The sample was phenol/chloroform extracted and then passed over a Bio-spin 30 column (Bio-Rad) to remove excess ATP.
(§3) A 20 μL aminoacylation reaction contained the following components for chPylRS variants: 50 mM HEPES-KOH (pH 7.2), 25 mM KCl, 10 mM MgCl2, 5 mM DTT, 10 mM ATP, 25 μg/mL pyrophosphatase (Roche Applied Science), 10 mM amino acids, 500 nM PylRS variants, 5 μM unlabeled tRNA^Pyl, and 100 nM ^32P-labeled tRNA^Pyl. A 20 μL aminoacylation reaction contained the following components for MjTyrRS variants: 50 mM Tris-HCl (pH 7.5), 1 mM DTT, 10 mM MgCl2, 10 mM ATP, 20 μM unlabeled tRNACUA^Tyr/Opt, 3 μM ^32P-labeled tRNACUA^Tyr/Opt, 2 μM MjTyrRS variants. […]

For a further series, the system named is tRNACUA^Tyr/Opt. Description: Aminoacylation assay of MjTyrRS variants (32P-labeled tRNA, nuclease P1/TLC). The class given is biochemical. The note with it: for Relative catalytic efficiency: relative to p-NFRS with p-NF. As to the method:
as §1, §2, §3

In series [1] the test system is sfGFP(Asn39TAG) expressed in BL21 star DE3 cells. Briefly: ESI-MS analysis of purified sfGFP(Asn39TAG) for amino acid incorporated. The class given is cell-based, E. coli. The method, then:
Expression of His-tagged sfGFP was performed using the plasmids, cell strains, and antibiotic concentrations described in the methods for sfGFP assays. Saturated overnight cultures were prepared from single colonies of cotransformed cells, which were diluted 1,000-fold into 300 mL of LB media containing 1 mM ncAA where denoted and were grown while shaking at 230 rpm at 37° C. Once the cultures utilizing a pDB070 plasmid grew to a cell density of A600=0.3, AARS expression was induced by supplementing with anhydrotetracycline (ATc) to a final concentration of 200 ng/mL, and incubation was continued. […] Once cultures grew to a cell density of A600=0.5, sfGFP expression was induced by supplementation with a final concentration of 1 mM isopropyl-β-D-thiogalactosidase (IPTG) for cultures utilizing a pET28b(+) plasmid or a final concentration of 1 mM arabinose for cultures utilizing a pBAD plasmid. Incubation with shaking at 37° C. continued for an additional 16 h after induction of sfGFP expression. Cells were harvested by centrifugation at 5,000 g for 10 min at 4° C., and the resulting pellets were resuspended in B-PER II Bacterial Protein Extraction Reagent (Thermo Fisher Scientific) containing EDTA-free protease inhibitor cocktail (Roche). The soluble fraction of the cell lysates were diluted by an equal volume of equilibration buffer (20 mM Tris (pH 7.4), 10 mM imidazole, 300 mM NaCl) and were separately loaded onto a column containing 2 mL of HisPur Ni-NTA resin (Thermo Fisher Scientific) that had been pre-washed with two bed-volumes of equilibration buffer. […]
Purified protein samples were diluted to 10 μM in dialysis buffer lacking reducing agent or glycerol prior to analysis on an Agilent 6220 ESI-TOF mass spectrometer equipped with an Agilent 1260 HPLC. […] Data was analyzed using Agilent MassHunter Qualitative Analysis software (B.06.00, Build 6.0.633.0 with Bioconfirm). […]

Residue numbers refer to the chain shown, from its start. Read-outs that look alike come from different tables or passages of the source.

B1: chPylRS: chimera of residues 1-149 of MbPylRS and residues 185-454 of MmPylRS; progenitor enzyme (SEQ ID NO: 5) (protein)
chain: MDKKPLDVLISATGLWMSRTGTLHKIKHYEVSRSKIYIEMACGDHLVVNNSRSCRTARAFRHHKYRKTCKRCRVSDEDINNFLTRSTEGKTSVKVKVVSAPKVKKAMPKSVSRAPKPLENPVSAKASTDTSRSVPSPAKSTPNSPVPTSASAPALTKSQTDRLEVLLNPKDEISLNSGKPFRELESELLSRRKKDLQQIYAEERENYLGKLEREITRFFVDRGFLEIKSPILIPLEYIERMGIDNDTELSKQIFRVDKNFCLRPMLAPNLYNYLRKLDRALPDPIKIFEIGPCYRKESDGKEHLEEFTMLNFCQMGSGCTRENLESIITDFLNHLGIDFKIVGDSCMVYGDTLDVMHGDLELSSAVVGPIPLDREWGIDKPWIGAGFGLERLLKVKHDFKNIKRAARSESYYNGISTNL
With B1, the kcat with tRNA^Pyl (BocK substrate, Table 7) stood at 11.88 ± 0.18 s^−1 × 10^−3; with tRNA^Pyl (L-pyrrolysine substrate, Table 8) it was 33.24 ± 2.74 s^−1 × 10^−3. In addition, the Km – broadly, the concentration of substrate that gives half-maximal velocity – is 2.54 ± 0.16 µM in the series on tRNA^Pyl (BocK substrate, Table 7, read-out: KM^ATP); 0.26 ± 0.07 µM in the series on tRNA^Pyl (BocK substrate, Table 7, read-out: KM^tRNA); 21.03 ± 0.15 µM with tRNA^Pyl (L-pyrrolysine substrate, Table 8, read-out: KM^Pyl); 1030 ± 50 µM with tRNA^Pyl (Table 7, read-out: KM^bocK). In addition, the Relative catalytic efficiency in the series with tRNA^Pyl (kcat/KM^tRNA relative to chPylRS) amounted to 1.

B2: p-NFRS: previously evolved MjTyrRS variant charging p-nitro-L-phenylalanine; SEQ ID NO: 18, 22 (protein)
chain: MDEFEMIKRNTSEIISEEELREVLKKDEKSALIGFEPSGKIHLGHYLQIKKMIDLQNAGFDIIILLADLHAYLNQKGELDEIRKIGDYNKKVFEAMGLKAKYVYGSSFQLDKDYTLNVYRLALKTTLKRARRSMELIAREDENPKVAEVIYPIMQVNPLNYEGVDVAVGGMEQRKIHMLARELLPKKVVCIHNPVLTGLDGEGKMSSSKGNFIAVDDSPEEIRAKIKKAYCPAGVVEGNPIMEIAKYFLEYPLTIKRPEKFGGDLTVNSYEELESLFKNKELHPMRLKNAVAEELIKILEPIRKRL
As to B2, the results for the kcat with tRNACUA^Tyr/Opt (amino acid Phe), with tRNACUA^Tyr/Opt (ncAA p-IF) and in the series on tRNACUA^Tyr/Opt (ncAA p-NF) were 0.14 ± 0.003 s^−1 × 10^−3, 0.87 ± 0.11 s^−1 × 10^−3 and 1.40 ± 0.05 s^−1 × 10^−3, respectively. The Km amounted to 160 ± 30 µM in the series with tRNACUA^Tyr/Opt (amino acid Phe, read-out: KM^ncAA); 2230 ± 460 µM in the series on tRNACUA^Tyr/Opt (ncAA p-IF); 3680 ± 290 µM in the series with tRNACUA^Tyr/Opt (ncAA p-NF). The Relative catalytic efficiency with tRNACUA^Tyr/Opt (amino acid Phe) stood at 2.3; in the series with tRNACUA^Tyr/Opt (ncAA p-IF), 1.03; with tRNACUA^Tyr/Opt (ncAA p-NF) it was 1.00. Moreover, the “charging of p-IF” value in series [1] (LB media, 1 mM p-IF) is “efficiently charges p-iodo-L-phenylalanine (p-IF)”. The “charging of Phe” value in series [1] (overnight expression in LB media, presence or absence of 1 mM p-NF) is given as “efficiently charges Phe”.

B3: p-IFRS: previously reported MjTyrRS variant evolved to charge p-IF; His160; SEQ ID NO: 19, 23 (protein)
chain: B2 chain with N160H
B3: the “selectivity of incorporation into sfGFP” value in series [1] (LB media supplemented with both 1 mM p-NF and 1 mM p-IF) is listed as “selectively incorporates p-IF”.
